Results reported in US11945858B2, “Antibodies and antibody fragments against HNAV1.7 channel and their use in pain and cancer indications” (NATIONAL RESEARCH COUNCIL OF CANADA, priority 2018, dated 2024).
“And” between values parts separate entries of the source, which are not always exact repeats. Identical values can stand only once.

B1: DI-48: VHH from FC5DIE3IR llama immune library; SEQ ID NO: 59 (protein)
VHH: QAQVQLVESGGGLVQAGGSLRLSCAASGRTFSTYVMGWFRQTPGKEREFVAGFSWSGDYAIYVNSVKGRFTISRDNAKNTVYLQMNSLRPEDTAVYYCAARQRGGYSGRSYYTGRNDYEYWGQGTQVTVSS
modifications: DI-48
B2: DI-28: VHH from FC5DIE3IR llama immune library; SEQ ID NO: 54 (protein)
VHH: QAQVQLVESGGGLVQAGGSLRLSCAASGRTFSSSGMGWFRQAPGKDRELVAGISWSGDSAYYANSVAGRFTISRDNINNTVYLQMNSLKPEDTAVYYCAARQGGRNYATSPREYDYWGQGTQVTVSS
modifications: DI-28
B3: DI-4: VHH from FC5DIE3IR llama immune library; SEQ ID NO: 47 (protein)
VHH: QVQLVESGGGLVQPGGSLRLSCAASGFTFSNYWMYWVRQAPGKGLERVSSIYISGGNTYYADSVKGRFTISRDNAKNTLYLQMNSLKSEDTAVYYCVKGDTFGGMDYWGKGTQVTVSS
modifications: DI-4
B4: DI-16: VHH from FC5DIE3IR llama immune library; SEQ ID NO: 49; clone DI-11 has identical sequence (protein)
VHH: QAQVQLVESGGGLVQAGGSLRLSCAASGRTVSSYTMGWFRQAPGKERRFVATVNSSGRGTHYADSVKGRFTISRDNAKNTVYLQMNSLKPEDTAVYYCAAAPYPDGSLGPGYDYWGQGTQVTVSS
modifications: DI-16

Key:
[1] = system: CFA-induced thermal hyperalgesia; test: Hargreaves Model of Hyperalgesia in rats; type: in vivo, rat
Procedure: Hargreaves Model of Hyperalgesia in rats. Rats aged 4-6 weeks (weight range, 180-220 g) were used for intraplantar (ipl) administrations of various antibodies and evaluation of their efficacy in the Hargreaves model of inflammatory pain. Chronic inflammatory pain is induced by injecting a low volume (50 μl) of complete Freund's adjuvant (CFA; heat-killed M. tuberculosis—Sigma, St. Louis, Mo.—suspended in oil:saline 2:1 emulsion) into the right hind paw. The paw withdrawal latency in response to the application of a radiant stimulus onto the plantar surface of both right and left paw was measured using the plantar Analgesia Meter equipment for paw stimulation (IITC Life Science, Woodland Hills, Calif.). The time taken by the animal to respond by licking or flicking its paw is interpreted as positive response (paw withdrawal latency). After 48 h of the CFA injection, the baseline for latency paw withdrawal was measured and the mAbs tested. […] A cut-off time (20 sec) is established at the end of which the heat source shuts off automatically to avoid tissue damage. Animals were kept (randomized) one per cage and staff performing pain experiments are blinded to the content of injectable compounds. Percentage of maximum possible effect (% MPE) was calculated using the formula % MPE=(Test Latency−Baseline Latency)×100/(Cut-off−Baseline Latency).

[2] = system: OD1-evoked Nav1.7-mediated spontaneous pain behaviours; type: in vivo, mouse; details: 100 μg, injected 60 minutes prior to OD1; 20 min after the injection
FC5DIE3IR = target: T1, FC5DIE3IR (Homo sapiens, UniProt Q15858); test: Surface Plasmon Resonance for VHH antibodies, immobilized FC5DIE3IR; type: binding; details: for Kd / Rmax (RU) / ka / kd: immobilized FC5DIE3IR; for ka / kd: 25 C
T1 construct: The supernatant was collected and loaded on a 5 ml MabSelect™ SuRe™ column; made in house; host or cells: CHO-3E7 (transient, pTT5 vector), purified from supernatant
Procedure: (§1) Surface Plasmon Resonance for VHH antibodies. For SPR experiments, IMAC-purified VHHs DI-D, DI-4, DI-16, DI-28 and DI-48 were passed through a Superdex 75 (GE Healthcare) column for SEC purification in HBS-EP+buffer (10 mM HEPES, pH 7.4, containing 150 mM NaCl, 3 mM EDTA and 0.05% P20), connected to an AKTAPurifier (GE Healthcare) at a flow rate of 1 ml/min. Monomeric VHH fractions were collected and protein concentration determined by measuring A280 measurement. Using a Biacore T200 instrument (GE Healthcare), approximately 500-1000 RUs of FC5DIE3IR, FC5 and an irrelevant VHH (2A3-H4) were immobilized on a CM5 Series S sensor chip (GE Healthcare) at pH 4.0 using standard amine coupling according to the manufacturer's instructions (GE Healthcare). […] Surfaces were regenerated by washing with a 120 s pulse of 10 mM glycine pH 1.5. Data were analyzed with Biacore T200 Software v 3.0 and affinities determined using steady state binding or a 1:1 binding model.

FC5 = test: Surface Plasmon Resonance for VHH antibodies, immobilized FC5; type: binding; details: SPR; 25 C
Procedure: as §1

2A3-H4 = test: Surface Plasmon Resonance for VHH antibodies, immobilized irrelevant VHH 2A3-H4; type: binding; details: SPR; 25 C
Procedure: as §1

Sequence of FC5 (as listed by the source): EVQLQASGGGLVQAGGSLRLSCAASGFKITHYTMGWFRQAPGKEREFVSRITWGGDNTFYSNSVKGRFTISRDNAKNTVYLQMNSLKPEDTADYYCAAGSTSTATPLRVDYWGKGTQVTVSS

| Molecule | Binding to immobilized FC5 (comment, in words) (FC5) | Binding to immobilized 2A3-H4 (comment, in words) (2A3-H4) | Kd (FC5DIE3IR) [nM] | Rmax (RU) (FC5DIE3IR) | ka (FC5DIE3IR) [M⁻¹ s⁻¹] | kd (FC5DIE3IR) [s⁻¹] | other results |
| --- | --- | --- | --- | --- | --- | --- | --- |
| CC(=O)Nc1cccc(Nc2ncnc(N3CCC(OCc4ccc(OC(F)(F)F)cc4)CC3)n2)c1C [TC-N1752, reference compound] | – | – | – | – | – | – | Percentage of effect after injection (on left paw withdrawal) ([1]; 100 μg intraplantar, 0 h): 0%; Latency paw withdrawal ([1]; 100 μg intraplantar, 1 h): 8.15 ± 1.6 s and 8.15 ± 2.60 s; Percentage of effect after injection (on left paw withdrawal) ([1]; 100 μg intraplantar, 1 h): 37.01%; Latency paw withdrawal ([1]; 100 μg intraplantar, 2 h): 11.17 ± 1.19 s; Percentage of effect after injection (on left paw withdrawal) ([1]; 100 μg intraplantar, 2 h): 44.77%; Latency paw withdrawal ([1]; 100 μg intraplantar, 4 h): 11.90 ± 0.99 s; Percentage of effect after injection (on left paw withdrawal) ([1]; 100 μg intraplantar, 4 h): 49.05%; Percentage of maximum possible effect (% MPE) ([1]; 100 μg intraplantar, 4 h (FIG. 27B)): 46.47%±7.14; Time spent in pain behaviors (saline plus OD1 = 100%) [2]: 51.62%±4.85 |
| TLESEEDFRKYFYYLEGSKDALLCGFSTDS (Peptide #2 = 30 amino acid sequence located on loop3 of the D1 domain of the Nav1.7 polypeptide) [P2] | – | – | – | – | – | – | Latency paw withdrawal time ([1]; peptide 375 μg co-injected with 3A8 75 μg, intraplantar (FIG. 18)): 6.76 ± 0.32 s; 3A8-induced reversal of hyperalgesia (% MPE) ([1]; peptide 375 μg co-injected with 3A8 75 μg, intraplantar, 4 h): 13.49%±2.62 |
| B1 | No binding | Very low | – | – | – | – | Binding to immobilized FC5DIE3IR (comment, in words) (FC5DIE3IR; SPR): Low affinity, |
| B2 | No binding | No binding | 4.4 | 318.3 | 461000 | 0.00205 | – |
| B3 | No binding | Very low non- | – | 469.2 | – | – | – |
| B4 | No binding | No binding | 4.3 | 317.9 | 619000 | 0.00266 | – |
